# Patent US20060084157A1
# Columns and labels:
# [1] = molecular target: Purified Fe-hydrogenase HydA of Scenedesmus obliquus (native enzyme) (Scenedesmus obliquus); test: cell-based or functional assay
# [2] = molecular target: ferredoxin (source not stated, Table I)
# Sequence of Purified Fe-hydrogenase HydA of Scenedesmus obliquus (native enzyme) (Scenedesmus obliquus) (chain, as listed by the source): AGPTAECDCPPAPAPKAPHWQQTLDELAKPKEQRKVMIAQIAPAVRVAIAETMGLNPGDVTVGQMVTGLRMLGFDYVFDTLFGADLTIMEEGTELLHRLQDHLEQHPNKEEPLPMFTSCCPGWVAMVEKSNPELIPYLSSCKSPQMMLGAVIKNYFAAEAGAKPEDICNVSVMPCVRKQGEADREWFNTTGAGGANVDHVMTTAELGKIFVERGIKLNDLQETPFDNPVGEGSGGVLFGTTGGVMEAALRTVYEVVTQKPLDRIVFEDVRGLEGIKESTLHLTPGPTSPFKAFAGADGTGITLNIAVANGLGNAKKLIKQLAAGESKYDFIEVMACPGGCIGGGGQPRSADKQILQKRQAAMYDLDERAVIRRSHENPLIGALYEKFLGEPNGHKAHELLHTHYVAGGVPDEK
Molecule,"H2-evolving activity (in vitro, dithionite as reducing reagent) [1] [U/mg protein]",KM value (ferredoxin) [2] [µM]
Ferredoxin (PetF) of Chlamydomonas reinhardtii (from UniProt P07839 33-126),390,–
Fe-hydrogenase HydA of Chlamydomonas reinhardtii (native mature enzyme) (protein) AAPAAEAPLSHVQQALAELAKPKDDPTRKHVCVQVAPAVRVAIAETLGLAPGATTPKQLAEGLRRLGFDEVFDTLFGADLTIMEEGSELLHRLTEHLEAHPHSDEPLPMFTSCCPGWIAMLEKSYPDLIPYVSSCKSPQMMLAAMVKSYLAEKKGIAPKDMVMVSIMPCTRKQSEADRDWFCVDADPTLRQLDHVITTVELGNIFKERGINLAELPEGEWDNPMGVGSGAGVLFGTTGGVMEAALRTAYELFTGTPLPRLSLSEVRGMDGIKETNITMVPAPGSKFEELLKHRAAARAEAAAHGTPGPLAWDGGAGFTSEDGRGGITLRVAVANGLGNAKKLITKMQAGEAKYDFVEIMACPAGCVGGGGQPRSTDKAITQKRQAALYNLDEKSTLRRSHENPSIRELYDTYLGEPLGHKAHELLHTHYVAGGVEEKDEKK,–,35

# Second part, led by results:
"H2-evolving activity (in vitro, dithionite as reducing reagent) [1] [U/mg protein]",Molecule,KM value (ferredoxin) [2] [µM]
420,Ferredoxin (PetF) of Scenedesmus obliquus,–
350,Spinach ferredoxin (PetF) (from UniProt P00221 51-147),–
